The text below walks through data of patent US20260217833A1 (APTEVO RESEARCH AND DEVELOPMENT, published 2026).

One experiment addresses T1, huPD-L1 ECD AFH (human).
T1 construct: also called PDL01001; recombinant human PD-L1 ectodomain (ECD)
Nature of the experiment: SPR, binder captured on anti-human IgG, PD-L1 ECD injected, 1:1 fit. For orientation: SPR reads the build-up and loss of mass on a sensor chip optically.

In a further experiment the target is T2, Human PD-L1 full-length (human, UniProt Q9NZQ7 19-290).
T2 construct: also called PDL01021; CHOK1SV/huPDL1
The experiment can be described thus: flow cytometry, CHOK1SV/human PD-L1 cells. (In general: A flow cytometer gives signals particle by particle.)

The target of the next experiment is T3, human CD40 full-length (human, UniProt P25942 21-277).
T3 construct: Also used for CD40 of Daudi cells, of CD40-expressing HEK293 cells and of the BPS CD40/NFkB HEK293 reporter cells where the row says so; also called CD4001012; CHOK1SV/CD40
The experiment can be described thus: flow cytometry, CHOK1SV/human CD40 cells.

T1 sequence (chain, as listed by the source limits assumed): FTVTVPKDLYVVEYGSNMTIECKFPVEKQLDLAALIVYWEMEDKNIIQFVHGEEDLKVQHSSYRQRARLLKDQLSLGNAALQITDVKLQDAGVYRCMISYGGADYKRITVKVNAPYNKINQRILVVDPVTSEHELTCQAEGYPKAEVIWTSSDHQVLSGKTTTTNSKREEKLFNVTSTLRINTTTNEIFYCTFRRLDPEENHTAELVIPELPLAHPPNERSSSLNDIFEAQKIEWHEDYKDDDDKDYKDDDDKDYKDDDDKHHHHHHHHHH
T2 sequence (Q9NZQ7 19-290): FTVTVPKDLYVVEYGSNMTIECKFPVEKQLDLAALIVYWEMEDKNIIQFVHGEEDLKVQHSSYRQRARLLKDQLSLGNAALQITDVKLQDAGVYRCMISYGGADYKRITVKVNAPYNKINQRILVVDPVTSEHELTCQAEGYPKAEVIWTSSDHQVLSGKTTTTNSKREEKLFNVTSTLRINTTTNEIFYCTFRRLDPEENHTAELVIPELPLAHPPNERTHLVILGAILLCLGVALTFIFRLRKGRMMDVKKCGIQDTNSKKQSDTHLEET

B1: PDL01152 (Fc fusion)
chain: DIQMTQSPSSLSASVGDRVTITCRASQDINKFLSWYQQKPGKAPKLLIHYTSSLQSGVPSRFSGSGSGTDFTLTISSLQPEDFATYYCLQYDNLYTFGQGTKLEIKGGGGSGGGGSGGGGSGGGGSEVQLVESGGGLVQPGGSLRLSCAASGFTFSDYGMAWVRQAPGKGLEWVSFITSLAYIIYYADSVKGRFTISRDNAKNSLYLQMNSLRAEDTAVYYCARNYGSSPYYFDYWGQGTLVTVSS
notes: scFv (VL-VH); also called Humanized 5F9 anti-PD-L1 scFv; not shown: wildtype IgG1 Fc region
In the experiment with huPD-L1 ECD AFH, B1 gave a Kd of 1.1 nM, a koff of 0.0012 s⁻¹ and a kon of 1.1e+06 M⁻¹ s⁻¹.

B2: CD4001065 (PDL_5F9 x hFc x CD40_5B9) (bispecific antibody)
chain: EVQLVESGGGLVKPGGSLRLSCAASGFTFSDYGMAWVRQAPGKGLEWVAFITSLAYIIYYADSVKGRFTISRDNAKNSLYLQMNSLRAEDTAVYYCARNYGSSPYYFDYWGQGTLVTVSSGGGGSGGGGSGGGGSGGGGSDIQMTQSPSSLSASVGDRVTITCRASQDINKFLSWYQQKPGKAPKLLIHYTSSLQPGVPSRFSGSGSGTDFTLTISSLQPEDFATYYCLQYDNLYTFGQGTKLEIKEPKSSDKTHTCPPCPAPPAAAPSVFLFPPKPKDTLMISRTPEVTCVVVDVSHEDPEVKFNWYVDGVEVHNAKTKPREEQYNSTYRVVSVLTVLHQDWLNGKEYKCAVSNKALPAPIEKTISKAKGQPREPQVYTLPPSRDELTKNQVSLTCLVKGFYPSDIAVEWESNGQPENNYKTTPPVLDSDGSFFLYSKLTVDKSRWQQGNVFSCSVMHEALHNHYTQKSLSLSPGGGGSPSDVVMTQTPLSLPVSLGDQASISCRSSQSLVHYNGYTYLHWYLQKPGQSPKLLIYKVSNRFSGVPDRFSGSGSGTDFTLKISRVEAEDLGVYFCSQTTHVPLTFGAGTKLELRGGGGSGGGGSGGGGSGGGGSEVMLVESGGGLVKPGGSLKLSCAASGFTFSSYAMSWVRQTPERRLEWVASISSAGTYIYYPDSVKGRFTISRDNAKNILYLQMNSLRSEDTAMYYCARHGNGYDPLWYFDVWGAGTTVTVSS
notes: ADAPTIR format, anti-PD-L1 scFv on N-terminus, anti-CD40 scFv on C-terminus; also called CD4001065 (5B9)
Take B2: the binding result with Human PD-L1 full-length and with human CD40 full-length was “binds” in each case.

B3: CD4001080 (bispecific antibody)
Fc-knob x CD40_5B9: EPKSSDKTHTCPPCPAPPAAAPSVFLFPPKPKDTLMISRTPEVTCVVVDVSHEDPEVKFNWYVDGVEVHNAKTKPREEQYNSTYRVVSVLTVLHQDWLNGKEYKCAVSNKALPAPIEKTISKAKGQPREPQVYTLPPSRDELTKNQVSLWCLVKGFYPSDIAVEWESNGQPENNYKTTPPVLDSDGSFFLYSKLTVDKSRWQQGNVFSCSVMHEALHNHYTQKSLSLSPGGGGSPSDVVMTQTPLSLPVSLGDQASISCRSSQSLVHYNGYTYLHWYLQKPGQSPKLLIYKVSNRFSGVPDRFSGSGSGTDFTLKISRVEAEDLGVYFCSQTTHVPLTFGAGTKLELRGGGGSGGGGSGGGGSGGGGSEVMLVESGGGLVKPGGSLKLSCAASGFTFSSYAMSWVRQTPERRLEWVASISSAGTYIYYPDSVKGRFTISRDNAKNILYLQMNSLRSEDTAMYYCARHGNGYDPLWYFDVWGAGTTVTVSS
PDL_5F9 x Fc-Hole x CD40_5B9: EVQLVESGGGLVKPGGSLRLSCAASGFTFSDYGMAWVRQAPGKGLEWVAFITSLAYIIYYADSVKGRFTISRDNAKNSLYLQMNSLRAEDTAVYYCARNYGSSPYYFDYWGQGTLVTVSSGGGGSGGGGSGGGGSGGGGSDIQMTQSPSSLSASVGDRVTITCRASQDINKFLSWYQQKPGKAPKLLIHYTSSLQPGVPSRFSGSGSGTDFTLTISSLQPEDFATYYCLQYDNLYTFGQGTKLEIKEPKSSDKTHTCPPCPAPPAAAPSVFLFPPKPKDTLMISRTPEVTCVVVDVSHEDPEVKFNWYVDGVEVHNAKTKPREEQYNSTYRVVSVLTVLHQDWLNGKEYKCAVSNKALPAPIEKTISKAKGQPREPQVYTLPPSRDELTKNQVSLSCAVKGFYPSDIAVEWESNGQPENNYKTTPPVLDSDGSFFLVSKLTVDKSRWQQGNVFSCSVMHEALHNRFTQKSLSLSPGGGGSPSDVVMTQTPLSLPVSLGDQASISCRSSQSLVHYNGYTYLHWYLQKPGQSPKLLIYKVSNRFSGVPDRFSGSGSGTDFTLKISRVEAEDLGVYFCSQTTHVPLTFGAGTKLELRGGGGSGGGGSGGGGSGGGGSEVMLVESGGGLVKPGGSLKLSCAASGFTFSSYAMSWVRQTPERRLEWVASISSAGTYIYYPDSVKGRFTISRDNAKNILYLQMNSLRSEDTAMYYCARHGNGYDPLWYFDVWGAGTTVTVSS
As to B3, the binding result with Human PD-L1 full-length and with human CD40 full-length was “binds” throughout.

B4: CD4001077 (bispecific antibody)
PDL_5F9 x Fc-Knob: EVQLVESGGGLVKPGGSLRLSCAASGFTFSDYGMAWVRQAPGKGLEWVAFITSLAYIIYYADSVKGRFTISRDNAKNSLYLQMNSLRAEDTAVYYCARNYGSSPYYFDYWGQGTLVTVSSGGGGSGGGGSGGGGSGGGGSDIQMTQSPSSLSASVGDRVTITCRASQDINKFLSWYQQKPGKAPKLLIHYTSSLQPGVPSRFSGSGSGTDFTLTISSLQPEDFATYYCLQYDNLYTFGQGTKLEIKEPKSSDKTHTCPPCPAPPAAAPSVFLFPPKPKDTLMISRTPEVTCVVVDVSHEDPEVKFNWYVDGVEVHNAKTKPREEQYNSTYRVVSVLTVLHQDWLNGKEYKCAVSNKALPAPIEKTISKAKGQPREPQVYTLPPSRDELTKNQVSLWCLVKGFYPSDIAVEWESNGQPENNYKTTPPVLDSDGSFFLYSKLTVDKSRWQQGNVFSCSVMHEALHNHYTQKSLSLSPG
PDL_5F9 x Fc-Hole x CD40_5B9: EVQLVESGGGLVKPGGSLRLSCAASGFTFSDYGMAWVRQAPGKGLEWVAFITSLAYIIYYADSVKGRFTISRDNAKNSLYLQMNSLRAEDTAVYYCARNYGSSPYYFDYWGQGTLVTVSSGGGGSGGGGSGGGGSGGGGSDIQMTQSPSSLSASVGDRVTITCRASQDINKFLSWYQQKPGKAPKLLIHYTSSLQPGVPSRFSGSGSGTDFTLTISSLQPEDFATYYCLQYDNLYTFGQGTKLEIKEPKSSDKTHTCPPCPAPPAAAPSVFLFPPKPKDTLMISRTPEVTCVVVDVSHEDPEVKFNWYVDGVEVHNAKTKPREEQYNSTYRVVSVLTVLHQDWLNGKEYKCAVSNKALPAPIEKTISKAKGQPREPQVYTLPPSRDELTKNQVSLSCAVKGFYPSDIAVEWESNGQPENNYKTTPPVLDSDGSFFLVSKLTVDKSRWQQGNVFSCSVMHEALHNRFTQKSLSLSPGGGGSPSDVVMTQTPLSLPVSLGDQASISCRSSQSLVHYNGYTYLHWYLQKPGQSPKLLIYKVSNRFSGVPDRFSGSGSGTDFTLKISRVEAEDLGVYFCSQTTHVPLTFGAGTKLELRGGGGSGGGGSGGGGSGGGGSEVMLVESGGGLVKPGGSLKLSCAASGFTFSSYAMSWVRQTPERRLEWVASISSAGTYIYYPDSVKGRFTISRDNAKNILYLQMNSLRSEDTAMYYCARHGNGYDPLWYFDVWGAGTTVTVSS
Regarding B4, the binding result in the experiment with Human PD-L1 full-length and with human CD40 full-length was “binds” in each case.

B5: CD4001068 (bispecific antibody)
PDL_5F9 x Fc-Knob: EVQLVESGGGLVKPGGSLRLSCAASGFTFSDYGMAWVRQAPGKGLEWVAFITSLAYIIYYADSVKGRFTISRDNAKNSLYLQMNSLRAEDTAVYYCARNYGSSPYYFDYWGQGTLVTVSSGGGGSGGGGSGGGGSGGGGSDIQMTQSPSSLSASVGDRVTITCRASQDINKFLSWYQQKPGKAPKLLIHYTSSLQPGVPSRFSGSGSGTDFTLTISSLQPEDFATYYCLQYDNLYTFGQGTKLEIKEPKSSDKTHTCPPCPAPPAAAPSVFLFPPKPKDTLMISRTPEVTCVVVDVSHEDPEVKFNWYVDGVEVHNAKTKPREEQYNSTYRVVSVLTVLHQDWLNGKEYKCAVSNKALPAPIEKTISKAKGQPREPQVYTLPPSRDELTKNQVSLWCLVKGFYPSDIAVEWESNGQPENNYKTTPPVLDSDGSFFLYSKLTVDKSRWQQGNVFSCSVMHEALHNHYTQKSLSLSPG
CD40_5B9 x Fc-Hole: DVVMTQTPLSLPVSLGDQASISCRSSQSLVHYNGYTYLHWYLQKPGQSPKLLIYKVSNRFSGVPDRFSGSGSGTDFTLKISRVEAEDLGVYFCSQTTHVPLTFGAGTKLELRGGGGSGGGGSGGGGSGGGGSEVMLVESGGGLVKPGGSLKLSCAASGFTFSSYAMSWVRQTPERRLEWVASISSAGTYIYYPDSVKGRFTISRDNAKNILYLQMNSLRSEDTAMYYCARHGNGYDPLWYFDVWGAGTTVTVSSEPKSSDKTHTCPPCPAPPAAAPSVFLFPPKPKDTLMISRTPEVTCVVVDVSHEDPEVKFNWYVDGVEVHNAKTKPREEQYNSTYRVVSVLTVLHQDWLNGKEYKCAVSNKALPAPIEKTISKAKGQPREPQVYTLPPSRDELTKNQVSLSCAVKGFYPSDIAVEWESNGQPENNYKTTPPVLDSDGSFFLVSKLTVDKSRWQQGNVFSCSVMHEALHNRFTQKSLSLSPG
In the case of B5, the binding result in the experiment with Human PD-L1 full-length is given as “binds”. For the same molecule, the concentration giving a half-maximal response (EC50 (read off the curve)) with human CD40 full-length is approximately 5 nM.

B6: CD4001074 (bispecific antibody)
CD40_5B9 x Fc-Knob: DVVMTQTPLSLPVSLGDQASISCRSSQSLVHYNGYTYLHWYLQKPGQSPKLLIYKVSNRFSGVPDRFSGSGSGTDFTLKISRVEAEDLGVYFCSQTTHVPLTFGAGTKLELRGGGGSGGGGSGGGGSGGGGSEVMLVESGGGLVKPGGSLKLSCAASGFTFSSYAMSWVRQTPERRLEWVASISSAGTYIYYPDSVKGRFTISRDNAKNILYLQMNSLRSEDTAMYYCARHGNGYDPLWYFDVWGAGTTVTVSSEPKSSDKTHTCPPCPAPPAAAPSVFLFPPKPKDTLMISRTPEVTCVVVDVSHEDPEVKFNWYVDGVEVHNAKTKPREEQYNSTYRVVSVLTVLHQDWLNGKEYKCAVSNKALPAPIEKTISKAKGQPREPQVYTLPPSRDELTKNQVSLWCLVKGFYPSDIAVEWESNGQPENNYKTTPPVLDSDGSFFLYSKLTVDKSRWQQGNVFSCSVMHEALHNHYTQKSLSLSPG
CD40_5B9 x Fc-Hole x PDL_5F9: DVVMTQTPLSLPVSLGDQASISCRSSQSLVHYNGYTYLHWYLQKPGQSPKLLIYKVSNRFSGVPDRFSGSGSGTDFTLKISRVEAEDLGVYFCSQTTHVPLTFGAGTKLELRGGGGSGGGGSGGGGSGGGGSEVMLVESGGGLVKPGGSLKLSCAASGFTFSSYAMSWVRQTPERRLEWVASISSAGTYIYYPDSVKGRFTISRDNAKNILYLQMNSLRSEDTAMYYCARHGNGYDPLWYFDVWGAGTTVTVSSEPKSSDKTHTCPPCPAPPAAAPSVFLFPPKPKDTLMISRTPEVTCVVVDVSHEDPEVKFNWYVDGVEVHNAKTKPREEQYNSTYRVVSVLTVLHQDWLNGKEYKCAVSNKALPAPIEKTISKAKGQPREPQVYTLPPSRDELTKNQVSLSCAVKGFYPSDIAVEWESNGQPENNYKTTPPVLDSDGSFFLVSKLTVDKSRWQQGNVFSCSVMHEALHNRFTQKSLSLSPGGGGSPSEVQLVESGGGLVKPGGSLRLSCAASGFTFSDYGMAWVRQAPGKGLEWVAFITSLAYIIYYADSVKGRFTISRDNAKNSLYLQMNSLRAEDTAVYYCARNYGSSPYYFDYWGQGTLVTVSSGGGGSGGGGSGGGGSGGGGSDIQMTQSPSSLSASVGDRVTITCRASQDINKFLSWYQQKPGKAPKLLIHYTSSLQPGVPSRFSGSGSGTDFTLTISSLQPEDFATYYCLQYDNLYTFGQGTKLEIK
B6: the binding result with Human PD-L1 full-length was “binds”. Besides, the half-maximal effective concentration (EC50 (read off the curve)) with human CD40 full-length was approximately 2 nM.

For orientation: Kd means the free concentration of one partner at which half of the binding sites on the other are occupied at equilibrium, for simple one-to-one binding. High values mean lower affinity, low ones higher affinity. A word on the koff: it is the first-order rate constant of dissociation. A lower koff goes with a long-lived complex. Broadly, the kon is the rate constant with which the complex forms. Higher therefore signals faster complex formation. As usually defined, the EC50 (read off the curve) is the concentration giving half of the maximal effect. A high value points to a need for much substance.
